This is an account of results in a protein production outcome set (Wang et al. 2014).

The nature of this data set: label from the status in PepcDB records.

On to “MIGSTSDGLVPGNTDMPATPTTALTALRTPHPPTGGESMHPRTRTAPALLFAVCLTALAAYPAAADDPVPTTERVSVTLDGAQIDDPSYRPQLTSKGGVVYTSDGPVWSTDHNGVSDAYRNSERVSYNMGAARSYDPSACHTARMIAFVSDRTPAGGTTPSVYVRNTPVGKLSYASHGYQGVPFTWAGQPAMSADCQWMAFSATLPATPDHVEQPRVYRYRIYDGTIEQVSPDSADGSRAAVRPSISADGRYVAYQSSIPHPGGPANDSDIYVRDLETGTLEKASVGRHGRPADRASTGPSLSADGRHVAFDSYASNLAPGDTNGTVNVFVRDLDAGTTRLVKGAGRHAYTAEAALSGDGLHLAYVSAGIRGSRGVPAVYLRDLATGRTRLISVDTRGHRNDRAAGNPSVNPDGTAVAFDSASPDLVPGDTNGTVDVFLRRLGSPEALEHHHHHH”, for which the protein production entry was “not failed”.
In the case of “MIIFFLLIIIFLITALLFLLIKELHLSTASNYIMTIFLSLIILFIILKPEVCISASISGAKLFFFSVFPYVFPFLIITNLIICYDGIEIYSKLLGPILCLPQRLPKKASIVLMVSFLCGYPLGAKYAADLYENDIISFSTFERLVNIASNPGPLFIIGAVGTSMLKNKYLGYILLISCYLSCIAMGIILPNKKDDFSTKKTKWNVSEKHSIGTALKTSTENAVKVILQVMSFIIIFSVIIGILKQSVIFKNSEASFIKTFILGIVEMTNGSSMLSSSSFPIELKVITISFLSSFGGLCVIAQIYSFIGKYKISYLKFISLKVIQGVISSIICFLLFKFLYVNNTISTFNANNNFLSPSHFFTVAVILAVLPILIYKIKKTI”, the protein production entry was “failed”.
For “MIIPKMSRHALIGGGTGFIGRNLANHLTKKGYDVTVISRMPGAKRITWHELEKNGIPGSVNAVVNATGQNTLDPTRRWTPGFQQNVWNSRINSSKTLAQAIKSAPQVSSFVNLCGVSHYKPSESKVYTEEDQVQGFDYMSRLCLAWEEAAHTGSEQDCKTTILRCGAVVGHGGGMVQSMWLPFKFGVGGPLGNGNQIMPWIHLHDLCSLIQYIIEKPVPGVVNAVAPEITSNLEFSKAFAKALHRPCIFGVPEFVVQAIFGPERAALVLSGAKVKPQKALSSGFKFQYPSVKEAVTQLTLKG”, the protein production result is on record as “failed”.
The result for “MIIQKIKQFFVGSERTIKAKKNIIASLLVKMLSIIISLLLVPVTLNYLNSYEYGVWLTLSSILVWINYFDIGLGNGLRNRLTEALAIGDYEKGRIYISTTFAILLILMLTIYLLYAFLQHFISWKSILNISTNHAFTDLNYLVLIVFAFFCISFVLKFVGIIYLAKQQPVINDLFGAIANLMSLIVIYILTLVTDGNLTYVAIVFSSAPAVVYLLAYPFTFYYKYPNLAPKISAINFHYAKGLLGLGFQFFIIQVSCLLMFATSNILIAQLCGPEEVTPYNIAYKYFSVITMGFTIVITPFWSAVTDALIKEDFLWIRKGIINMLKVWLFFLLCSLVMLFVASWVYSFWVNMSIPFYLSLLLFVYISIFNWNNMFAYFVNGMGKIRLQLYCSVISGGIFIPLAILLGQLWGLVGIIGSMCFSLLVSAVLMPIQLKLLLAKSATGIWNK” reads “failed”.
Take “MIITIANEKGGSGKSTLCLNLCVQLLLDKKDIAALDTDSQKSLEVFNNIRSETSLPNFTLFNRTGNITDTLKQMMDKYEYILIDTKGEHSKESQRAMLLSDWVLIPTTPSQLDTAVLLDMLERIRDIQALNENLKACIVMNRIPTIPTLKEKKALIDFINQNNANESVFLMDNLLSERIAYKRSVSEGMGVMEYNDNKAKNEWSQFYDELNGYLRIKK”: the protein production result is “failed”.
The result for “MIIVGFIGLVLVIILSAVLSLLRARSEALRQQQQFLAQLCPQLERQKTDRSPLNIPVVPQECEPLYHALNEMLAALPAGMGKDKLTGLINRVGLKRTLASLMPITQGTLVLIDIYRFRYVNDLLGFVFGDILLKQFAERLTSLSLKPKLIARLNGDEFFLYYEQSLSQEQLLHLRGRLQVPFNIKDTPVSVRLQIGCLQLAQHHADVSNMLRRLDLALKKARSTRIAIACYSENDDIRQLRELKIIDSLPNGLQRNHLYMVYQPKQDVSSEGCTQVEALIRWEHEELGVISPGEFIPLAECAGMIDLVSHWALEQVLQQQVKWRLAGISVCVALNLSTRDLDSETLPHELDARLKHYQLPPECLMIEITESTLMADLNKAVDTLVQIRRLGIHLAIDDFGTGHSSLAYLKHLPANEVKIDKVFLQDLKPNQPSEYILEASVNIAKKLGYEVTVEGVETQEVRDLLVKMGVDRIQGLCYAKPMRAVELEMHWHRLCPAPKMLSANLGSHP” reads “failed”.
